Results on four molecules are retold here after patent US20230242876A1 (SHANGHAI SINOBIO BIOTECH, published 2023).

What all share (test): ELISA, antigen coated at 1 ug/ml, binder titrated from 10 ug/ml, OD450
In general terms: ELISA stands for enzyme-linked immunosorbent assay.

Assay [1] deals with T1, CD3-OX40L BsM_M.
T1 construct: N-glycosylated; also called anti-CD3/OX40L bispecific molecule of monomeric form

Assay [2] deals with T2, CD3-OX40L BsM_D.
T2 construct: glycosylated, disulfide-linked dimer; also called anti-CD3/OX40L bispecific molecule of dimeric form

In assay [3] the target is T3, CD3-B7RP-1 BsM_M.
T3 construct: N-glycosylated on the B7RP-1 part; also called anti-CD3/B7RP-1 bispecific molecule of monomeric form

Assay [4] concerns the target T4, CD3-B7RP-1 BsM_D.
T4 construct: glycosylated, disulfide-linked dimer; also called anti-CD3/B7RP-1 bispecific molecule of dimeric form

Assay [5] addresses T5, CD3-CD70 BsM_M.
T5 construct: N-glycosylated; also called anti-CD3/CD70 bispecific molecule of monomeric form

Assay [6] addresses T6, CD3-CD70 BsM_D.
T6 construct: glycosylated, disulfide-linked dimer; also called anti-CD3/CD70 bispecific molecule of dimeric form

Assay [7] deals with T7, CD3-GITRL BsM_M.
T7 construct: glycosylated; also called anti-CD3/GITRL bispecific molecule of monomeric form

Assay [8] addresses T8, CD3-GITRL BsM_D.
T8 construct: glycosylated, disulfide-linked dimer; also called anti-CD3/GITRL bispecific molecule of dimeric form

B1: human OX40-hFc recombinant protein (Fc fusion)
chain: LHCVGDTYPSNDRCCHECRPGNGMVSRCSRSQNTVCRPCGPGFYNDVVSSKPCKPCTWCNLRSGSERKQLCTATQDTVCRCRAGTQPLDSYKPGVDCAPCPPGHFSPGDNQACKPWTNCTLAGKHTLQPASNSSDAICEDRDPPATQPQETQGPPARPITVQPTEAWPRTSQGPSTRPVEVPGGRA
notes: Purchased from Novoprotein; also called OX40-hFc recombinant antigen; not shown: human Fc (hFc) of the purchased fusion
With B1, the binding result in assay [1] and in assay [2] was “binds” each time.

B2: human ICOS-hFc recombinant protein (Fc fusion)
chain: EINGSANYEMFIFHNGGVQILCKYPDIVQQFKMQLLKGGQILCDLTKTKGSGNTVSIKSLKFCHSQLSNNSVSFFLYNLDHSHANYYFCNLSIFDPPPFKVTLTGGYLHIYESQLCCQLK
notes: Purchased from Novoprotein; also called ICOS-hFc recombinant antigen; not shown: human Fc (hFc) of the purchased fusion
As for B2, the binding result in assay [3] and in assay [4] was “binds” throughout.

B3: human CD27-hFc recombinant protein (Fc fusion)
chain: TPAPKSCPERHYWAQGKLCCQMCEPGTFLVKDCDQHRKAAQCDPCIPGVSFSPDHHTRPHCESCRHCNSGLLVRNCTITANAECACRNGWQCRDKECTECDPLPNPSLTARSSQALSPHPQPTHLPYVSEMLEARTAGHMQTLADFRQLPARTLSTHWPPQRSLCSSDFIR
notes: Purchased from Novoprotein; also called CD27-hFc recombinant antigen; not shown: human Fc (hFc) of the purchased fusion
As for B3, the binding result in assay [5] and in assay [6] was “binds” each time.

B4: human GITR-hFc recombinant protein (Fc fusion)
chain: QRPTGGPGCGPGRLLLGTGTDARCCRVHTTRCCRDYPGEECCSEWDCMCVQPEFHCGDPCCTTCRHHPCPPGQGVQSQGKFSFGFQCIDCASGTFSGGHEGHCKPWTDCTQFGFLTVFPGNKTHNAVCVPGSPPAE
notes: Purchased from Novoprotein; also called GITR-hFc recombinant antigen; not shown: human Fc (hFc) of the purchased fusion
In the case of B4, the binding result in assay [7] and in assay [8] was “binds” throughout.
